{"source": "paper doi:10.1101/2022.10.06.511240", "about": "(bioRxiv, 2022)", "binders": {"B1": {"name": "CPK6-GST (enzyme, Arabidopsis thaliana, UniProt Q38872 1-544, looked up)", "chain": "MGNSCRGSFKDKIYEGNHSRPEENSKSTTTTVSSVHSPTTDQDFSKQNTNPALVIPVKEPIMRRNVDNQSYYVLGHKTPNIRDLYTLSRKLGQGQFGTTYLCTDIATGVDYACKSISKRKLISKEDVEDVRREIQIMHHLAGHKNIVTIKGAYEDPLYVHIVMELCAGGELFDRIIHRGHYSERKAAELTKIIVGVVEACHSLGVMHRDLKPENFLLVNKDDDFSLKAIDFGLSVFFKPGQIFKDVVGSPYYVAPEVLLKHYGPEADVWTAGVILYILLSGVPPFWAETQQGIFDAVLKGYIDFDTDPWPVISDSAKDLIRKMLCSSPSERLTAHEVLRHPWICENGVAPDRALDPAVLSRLKQFSAMNKLKKMALKVIAESLSEEEIAGLRAMFEAMDTDNSGAITFDELKAGLRRYGSTLKDTEIRDLMEAADVDNSGTIDYSEFIAATIHLNKLEREEHLVSAFQYFDKDGSGYITIDELQQSCIEHGMTDVFLEDIIKEVDQDNDGRIDYEEFVAMMQKGNAGVGRRTMKNSLNISMRDV"}}, "target": "T1, NRT1.1-His (Arabidopsis thaliana, UniProt Q05085 1-590)", "T1 sequence (looked up)": "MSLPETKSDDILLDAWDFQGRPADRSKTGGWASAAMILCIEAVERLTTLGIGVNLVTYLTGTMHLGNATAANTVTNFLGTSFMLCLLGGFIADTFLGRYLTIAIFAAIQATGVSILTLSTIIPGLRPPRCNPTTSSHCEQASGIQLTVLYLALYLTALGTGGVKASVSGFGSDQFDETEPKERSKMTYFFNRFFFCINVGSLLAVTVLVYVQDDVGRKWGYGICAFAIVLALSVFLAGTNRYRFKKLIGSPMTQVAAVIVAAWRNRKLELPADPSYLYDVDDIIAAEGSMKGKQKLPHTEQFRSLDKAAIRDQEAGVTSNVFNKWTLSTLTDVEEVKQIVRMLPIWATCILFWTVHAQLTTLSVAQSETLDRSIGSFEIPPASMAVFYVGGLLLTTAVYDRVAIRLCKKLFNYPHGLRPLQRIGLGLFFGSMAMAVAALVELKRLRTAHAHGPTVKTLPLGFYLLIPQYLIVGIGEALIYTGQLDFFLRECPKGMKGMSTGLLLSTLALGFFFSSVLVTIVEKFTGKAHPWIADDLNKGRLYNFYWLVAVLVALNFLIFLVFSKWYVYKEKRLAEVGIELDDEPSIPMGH", "assay": "pull-down", "data": [{"binder": "B1", "values": [{"measurement": "binding result", "result": "binds"}]}]}
